Source: patent publication US20040053370A1 (Eli Lilly, published 2004)
Ends that are not written are not given here.

B1: Val^8-Lys^18-Glu^22-GLP-1(7-37)OH (peptide)
peptide: HVEGTFTSDVSKYLEEQAAKEFIAWLVKGRG
B2: Val^8-Tyr^16-Phe^19-GLP-1(7-37)OH (peptide)
peptide: HVEGTFTSDYSSFLEGQAAKEFIAWLVKGRG
B3: Val^8-Phe^18-Glu^22-GLP-1(7-37)OH (peptide)
peptide: HVEGTFTSDVSFYLEEQAAKEFIAWLVKGRG
B4: Val^8-Ile^16-Glu^22-GLP-1(7-37)OH (peptide)
peptide: HVEGTFTSDISSYLEEQAAKEFIAWLVKGRG
B5: Val^8-Leu^16-Glu^22-GLP-1(7-37)OH (peptide)
peptide: HVEGTFTSDLSSYLEEQAAKEFIAWLVKGRG
B6: Val^8-Phe^19-Glu^22-GLP-1(7-37)OH (peptide)
peptide: HVEGTFTSDVSSFLEEQAAKEFIAWLVKGRG
B7: Val^8-Phe^16-Glu^22-GLP-1(7-37)OH (peptide)
peptide: HVEGTFTSDFSSYLEEQAAKEFIAWLVKGRG
B8: Val^8-Trp^19-Glu^22-GLP-1(7-37)OH (peptide)
peptide: HVEGTFTSDVSSWLEEQAAKEFIAWLVKGRG
B9: Val^8-Ile^18-Glu^22-GLP-1(7-37)OH (peptide)
peptide: HVEGTFTSDVSIYLEEQAAKEFIAWLVKGRG
B10: Val^8-Tyr^16-GLP-1(7-37)OH (peptide)
peptide: HVEGTFTSDYSSYLEGQAAKEFIAWLVKGRG
B11: Val^8-Tyr^12-GLP-1(7-37)OH (peptide)
peptide: HVEGTYTSDVSSYLEGQAAKEFIAWLVKGRG
B12: HAEGTFTSDVSSYLEGQAAKEFIAWLVKGRPSSGAPPPS-NH2 (peptide)
peptide: HAEGTFTSDVSSYLEGQAAKEFIAWLVKGRPSSGAPPPS-NH2
B13: HVEGTFTSDLSKQMEEEAVRLFIAWLVKGRG (peptide)
peptide: HVEGTFTSDLSKQMEEEAVRLFIAWLVKGRG
B14: HGEGTFTSDLSKQMEEEAVRLFIAWLVKGRG (peptide)
peptide: HGEGTFTSDLSKQMEEEAVRLFIAWLVKGRG
B15: HGEGTFTSDVSSYLEEEAVRLFIEWLKNGGP-NH2 (peptide)
peptide: HGEGTFTSDVSSYLEEEAVRLFIEWLKNGGP-NH2
B16: HVEGTFTSDLSKQMEGQAAKEFIAWLVKGRG (peptide)
peptide: HVEGTFTSDLSKQMEGQAAKEFIAWLVKGRG
B17: HAEGTFTSDVSKQLEEEAAKEFIAWLVKGRG (peptide)
peptide: HAEGTFTSDVSKQLEEEAAKEFIAWLVKGRG
B18: HGEGTFTSDLSKQMEEEAAKEFIEWLKNGGP-NH2 (peptide)
peptide: HGEGTFTSDLSKQMEEEAAKEFIEWLKNGGP-NH2
B19: HVEGTFTSDVSSYLEGQAAKEFIEWLKNGGP-NH2 (peptide)
peptide: HVEGTFTSDVSSYLEGQAAKEFIEWLKNGGP-NH2
B20: HVEGTFTSDVSSYLEEEAVRLFIAWLVKGRG (peptide)
peptide: HVEGTFTSDVSSYLEEEAVRLFIAWLVKGRG
B21: Val^8-GLP-1(7-37)OH (peptide)
peptide: HVEGTFTSDVSSYLEGQAAKEFIAWLVKGRG
B22: HGEGTFTSDLSKQMEGQAAKEFIEWLKNGGP-NH2 (peptide)
peptide: HGEGTFTSDLSKQMEGQAAKEFIEWLKNGGP-NH2
B23: HGEGTFTSDLSSYLEEEAVRLFIEWLKNGGP-NH2 (peptide)
peptide: HGEGTFTSDLSSYLEEEAVRLFIEWLKNGGP-NH2

Target: GLP-1 receptor
Experiment: cell-based or functional assay

First: B1
Second: B2
The “GLP-1 Receptor Activation” value of the first is lower: 1.18 fold of GLP-1(7-37)OH for the first, 1.32 fold of GLP-1(7-37)OH for the second.

Compared with B3, B4 is higher in “GLP-1 Receptor Activation” value: 0.94 fold of GLP-1(7-37)OH for the first, 1.55 fold of GLP-1(7-37)OH for the second.

Compared with B5, B6 is lower in “GLP-1 Receptor Activation” value: 2.02 fold of GLP-1(7-37)OH for the first, 0.7 fold of GLP-1(7-37)OH for the second.

Going from B7 to B8, the “GLP-1 Receptor Activation” value rises from 1.08 fold of GLP-1(7-37)OH to 1.5 fold of GLP-1(7-37)OH.

Compared with B9, B10 is lower in “GLP-1 Receptor Activation” value: 1.88 fold of GLP-1(7-37)OH for the first, 1.18 fold of GLP-1(7-37)OH for the second.

B11 was tested, and the “GLP-1 Receptor Activation” value was 0.8 fold of GLP-1(7-37)OH.

Target: GLP-1 receptor
Experiment: cell-based or functional assay
Remark: another data set of the same source

Compared with B12, B13 is lower in “In Vitro Activity (% of Val^8-GLP-1(7-37)OH)” value: 3.3 % of Val^8-GLP-1(7-37)OH for the first, 2.86 % of Val^8-GLP-1(7-37)OH for the second.

First: B14
Second: B15
The “In Vitro Activity (% of Val^8-GLP-1(7-37)OH)” value of the first is lower: 3.25 % of Val^8-GLP-1(7-37)OH for the first, 5.4 % of Val^8-GLP-1(7-37)OH for the second.

Compared with B16, B17 is higher in “In Vitro Activity (% of Val^8-GLP-1(7-37)OH)” value: 0.11 % of Val^8-GLP-1(7-37)OH for the first, 2.15 % of Val^8-GLP-1(7-37)OH for the second.

Going from B18 to B19, the “In Vitro Activity (% of Val^8-GLP-1(7-37)OH)” value falls from 2.8 % of Val^8-GLP-1(7-37)OH to 2.36 % of Val^8-GLP-1(7-37)OH.

Compared with B20, B21 is lower in “In Vitro Activity (% of Val^8-GLP-1(7-37)OH)” value: 1.47 % of Val^8-GLP-1(7-37)OH for the first, 1 % of Val^8-GLP-1(7-37)OH for the second.

Compared with B22, B23 is higher in “In Vitro Activity (% of Val^8-GLP-1(7-37)OH)” value: 1.44 % of Val^8-GLP-1(7-37)OH for the first, 5.07 % of Val^8-GLP-1(7-37)OH for the second.

Target: GLP-1 receptor
Experiment: cell-based or functional assay
Remark: another data set of the same source

Compared with B10, B11 is lower in “GLP-1 Receptor Activation” value: 1.18 fold of GLP-1(7-37)OH for the first, 0.81 fold of GLP-1(7-37)OH for the second.
